Molecular target: Inducible counterpart receptor for VSTM5 on anti-CD3 activated human CD4+ T cells
Assay: FACS on anti-CD3 activated primary human CD4+ T cells, 100 ug/ml; background of the isotype control on the whole cells

- gMFI: 0.335
Substance: Synagis (Palivizumab, anti-RSV humanized IgG1 mAb) (antibody)
